Data from patent publication US20100298415.

Columns and labels:
Assay in all cases: competition
Settings in all cases: PS three linkages at 5' and 3' ends of both strands; 5' C6 amino linker conjugated to Co(III) Schiff base; not inhibited at 1 uM; EMSA
Lef-1 = Lef-1 (UniProt Q9UJU2)
MitF = molecular target: T1, MitF (UniProt O75030)
T1 sequence: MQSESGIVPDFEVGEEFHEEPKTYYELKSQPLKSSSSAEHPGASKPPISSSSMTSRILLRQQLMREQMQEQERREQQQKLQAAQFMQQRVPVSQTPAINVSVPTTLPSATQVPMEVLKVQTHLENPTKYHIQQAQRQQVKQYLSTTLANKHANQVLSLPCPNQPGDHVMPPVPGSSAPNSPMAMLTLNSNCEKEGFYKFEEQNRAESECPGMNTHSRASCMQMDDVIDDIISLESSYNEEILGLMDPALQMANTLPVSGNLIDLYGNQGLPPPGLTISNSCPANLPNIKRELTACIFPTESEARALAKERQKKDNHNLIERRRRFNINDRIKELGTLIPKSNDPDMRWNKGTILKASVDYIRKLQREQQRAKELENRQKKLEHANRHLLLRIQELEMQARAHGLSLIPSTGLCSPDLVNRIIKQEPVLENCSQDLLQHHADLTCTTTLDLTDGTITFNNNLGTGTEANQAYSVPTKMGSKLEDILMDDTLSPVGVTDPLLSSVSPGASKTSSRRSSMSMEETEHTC

p105 (NF-kB) = molecular target: T2, p105 (NF-kB) (UniProt P19838)
T2 sequence: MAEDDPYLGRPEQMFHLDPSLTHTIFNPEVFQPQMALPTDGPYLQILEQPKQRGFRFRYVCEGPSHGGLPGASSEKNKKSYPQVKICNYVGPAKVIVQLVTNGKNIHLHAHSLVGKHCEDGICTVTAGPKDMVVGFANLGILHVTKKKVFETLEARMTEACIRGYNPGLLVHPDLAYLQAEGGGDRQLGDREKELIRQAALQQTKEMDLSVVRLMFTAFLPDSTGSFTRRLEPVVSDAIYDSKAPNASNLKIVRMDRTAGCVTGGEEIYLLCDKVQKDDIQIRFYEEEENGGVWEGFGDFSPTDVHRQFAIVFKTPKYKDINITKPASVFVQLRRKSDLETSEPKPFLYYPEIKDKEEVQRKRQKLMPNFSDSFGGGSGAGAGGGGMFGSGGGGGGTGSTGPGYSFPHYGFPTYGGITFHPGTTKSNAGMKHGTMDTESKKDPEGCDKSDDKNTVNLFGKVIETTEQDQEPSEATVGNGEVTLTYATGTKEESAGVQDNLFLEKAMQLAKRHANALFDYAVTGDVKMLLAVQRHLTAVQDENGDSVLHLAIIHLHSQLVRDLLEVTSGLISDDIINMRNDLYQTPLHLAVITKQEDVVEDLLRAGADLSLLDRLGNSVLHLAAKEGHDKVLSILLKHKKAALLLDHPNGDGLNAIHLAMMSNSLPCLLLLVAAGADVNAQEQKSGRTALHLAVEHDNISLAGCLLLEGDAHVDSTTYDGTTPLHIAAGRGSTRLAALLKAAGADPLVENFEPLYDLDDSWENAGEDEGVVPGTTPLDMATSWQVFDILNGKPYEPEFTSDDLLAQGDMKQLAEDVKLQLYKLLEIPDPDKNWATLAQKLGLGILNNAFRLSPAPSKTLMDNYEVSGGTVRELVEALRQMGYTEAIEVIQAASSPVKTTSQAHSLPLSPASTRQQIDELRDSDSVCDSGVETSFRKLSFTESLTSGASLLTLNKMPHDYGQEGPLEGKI

Measured: activity

Chain of Lef-1 (Q9UJU2 whole entry): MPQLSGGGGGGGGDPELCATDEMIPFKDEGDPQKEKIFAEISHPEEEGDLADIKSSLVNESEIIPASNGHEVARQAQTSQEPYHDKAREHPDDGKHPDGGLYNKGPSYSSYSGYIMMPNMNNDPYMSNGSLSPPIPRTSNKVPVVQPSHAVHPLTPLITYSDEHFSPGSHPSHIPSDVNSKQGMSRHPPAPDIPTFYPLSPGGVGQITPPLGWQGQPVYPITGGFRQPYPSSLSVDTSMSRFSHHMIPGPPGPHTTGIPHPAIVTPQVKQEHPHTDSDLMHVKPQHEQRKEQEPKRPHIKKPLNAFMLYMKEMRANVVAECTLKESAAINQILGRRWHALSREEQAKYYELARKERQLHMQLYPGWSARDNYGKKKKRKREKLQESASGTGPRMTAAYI

TACGACAGGTGTTGGGA (double strand) [Co(III)-Ebox]
> 1 µM: Lef-1 | MitF | p105 (NF-kB)
